Data published in article doi:10.1101/2023.07.17.549407 (bioRxiv, 2023).
Where no end group is shown, it is not given here. Ahx = NCCCCCC(=O)O

T1: carboxy-terminus of Hsp70 interacting protein (CHIP), recombinant (human, UniProt Q9UNE7 1-303)
T1 sequence: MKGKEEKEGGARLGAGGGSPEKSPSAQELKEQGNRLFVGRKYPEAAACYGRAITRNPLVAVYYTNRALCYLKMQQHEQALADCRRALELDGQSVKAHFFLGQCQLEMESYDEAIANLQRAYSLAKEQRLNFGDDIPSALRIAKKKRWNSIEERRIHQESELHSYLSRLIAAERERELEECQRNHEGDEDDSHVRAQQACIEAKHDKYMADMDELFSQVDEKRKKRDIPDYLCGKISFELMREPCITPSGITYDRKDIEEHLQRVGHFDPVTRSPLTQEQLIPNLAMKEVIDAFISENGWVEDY

T2: Human CHIP(21-154)-TPR domain (human, UniProt Q9UNE7 21-154)
T2 sequence: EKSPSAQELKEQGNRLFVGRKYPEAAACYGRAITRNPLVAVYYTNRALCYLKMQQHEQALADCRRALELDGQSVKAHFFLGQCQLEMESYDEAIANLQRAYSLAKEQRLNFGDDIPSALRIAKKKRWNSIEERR


Tests used:
[1] = biological target: T1, carboxy-terminus of Hsp70 interacting …; experiment: fluorescence polarisation
[2] = biological target: T2, Human CHIP(21-154)-TPR domain; experiment: crystal structure

| binding result [1] | Binder | other results |
| --- | --- | --- |
| binds | LWWPD (not fully specified (N-terminus); printed as FITC-Ahx-LWWPD) [CHIPOpt tracer (FITC-Ahx-LWWPD)] |  |
| binds | {FAM-Ahx}-IWWPD [IWWPD tracer] |  |

The next lines start with the binder.

| Binder | binding result [1] | other results |
| --- | --- | --- |
| {FAM-Ahx}-IEEVD [Hsp70 C-terminal tracer (FAM-Ahx-IEEVD)] | binds |  |
| EFLPKTPIFRPD [HsCHIC2(154-165)-c-term peptide] |  | binding result [2]: binds |
| Ac-LPKTPIFRPD [CHIC2 C-terminal 10-mer peptide Ac-LPKTPIFRPD] | binds |  |
| {FAM-Ahx}-IFRPD [labeled CHIC2 peptide (FAM-Ahx-IFRPD)] |  | Kd [1]: 148 ± 6 nM |
